# Test results reported in PMC3178552 (PLoS Pathogens, 2011).
# Read-outs that look alike come from different tables or passages of the source.
# What was measured:
# [1] = target: T1, vesicular stomatitis virus nucleoprotein lacking its 21 N-terminal residues (N[change]), MBP tag removed (vesicular stomatitis virus, UniProt P03521 22-422); assay: SEC-MALS; conditions: both partners purified
# SEC = target: the molecule itself; assay: SEC
# [2] = target: P60: the first 60 amino acids of VSV phosphoprotein P, a two-amino acid linker and a C-terminal His6-tag (vesicular stomatitis virus, UniProt P03520 1-60); assay: NMR titration; conditions: both partners purified
# [3] = target: T1, vesicular stomatitis virus …
binder,measurement,setting,value
full-length VSV phosphoprotein P dimer (natural protein) MDNLTKVREYLKSYSRLDQAVGEIDEIEAQRAEKSNYELFQEDGVEEHTKPSYFQAADDSDTESEPEIEDNQGLYAQDPEAEQVEGFIQGPLDDYADEEVDVVFTSDWKPPELESDEHGKTLRLTSPEGLSGEQKSQWLSTIKAVVQSAKYWNLAECTFEASGEGVIMKERQITPDVYKVTPVMNTHPSQSEAVSDVWSLSKTSMTFQPKKASLQPLTISLDELFSSRGEFISVGGDGRMSHKEAILLGLRYKKLYNQARVKYSL,stoichiometry N,[1],2 P molecules per NΔ21
N[change] in fusion with an N-terminal maltose binding protein tag (MBP-N[change]) (domain or fragment) EDPVEYPADYFRKSKEIPLYINTTKSLSDLRGYVYQGLKSGNVSIIHVNSYLYGALKDIRGKLDKDWSSFGINIGKAGDTIGIFDLVSLKALDGVLPDGVSDASRTSADDKWLPLYLLGLYRVGRTQMPEYRKKLMDGLTNQCKMINEQFEPLVPEGRDIFDVWGNDSNYTKIVAAVDMFFHMFKKHECASFRYGTIVSRFKDCAALATFGHLCKITGMSTEDVTTWILNREVADEMVQMMLPGQEIDKADSYMPYLIDFGLSSKSPYSSVKNPAFHFWGQLTALLLRSTRARNARQPDDIEYTSLTTAGLLYAYAVGSSADLAQQFCVGDNKYTPDDSTGGLTTNAPPQGRDVVEWLGWFEDQNRKPTPDMMQYAKRAVMSLQGLREKTIGKYAKSEFDK,binding result,SEC,binds
same,binding result,[2],binds
VREYLKSYSRLDQAVGEIDEIEAQRAEKSNYELF [shorter peptide encompassing residues 7 to 40 of P],stoichiometry N,[3],1
